Test results: paper PMC6724696 (Molecular Biology of the Cell, 2019)
Read-outs that look alike come from different tables or passages of the source. Where no end group is shown, it is not given here.

Assays:
Test in all cases: crystal structure
crystal structure [1] = molecular target: the molecule itself
crystal structure [2] = molecular target: the molecule itself; remark: listed apart in the source
crystal structure [3] = molecular target: the molecule itself; remark: listed apart in the source

SDQDSRLKAIERELEVLTNYVMRSEDGNNDR (domain or fragment, Saccharomyces cerevisiae, UniProt P36094 181-211, looked up) [3H5I-Spc42^181–211 T193E,S195E]
stoichiometry N (crystal structure [1]): 3

B1: Spc42^246–305 (domain or fragment, Saccharomyces cerevisiae, UniProt P36094 246-305, looked up)
chain: SDDDIMMYESAELKRVEEEIEELKRKILVRKKHDLRKLSLNNQLQELQSMMDGDDNIKLD
modifications: also: selenomethionine (SeMet) in the crystals
stoichiometry N (crystal structure [2]): 2

B2: H6-Spc42^11–130-3K2N (SeMet) (domain or fragment, Saccharomyces cerevisiae, UniProt P36094 11-130, looked up)
chain: SSKSSRLYDDYYNIPYQYSNPTPMNRDYNDVGSRINADKLVPEEYKRNTEFINKAVQQNKELNFKLREKQNEIFELKKIAETLRSKLEKYVDITKKLEDQNLNLQIKISDLEKKLSDANS
modifications: selenomethionine (SeMet)
binding result (crystal structure [3]): binds
